Laboratory results published in US20160068860A1, “TRANSGENIC PLANTS” (CONSEJO SUPERIOR DE INVESTIGACIONES CIENTIFICAS (CSIC), priority 2013, published 2016).
Positions count from the first letter of the chain named. Names and notes keep the numbering of the source.

B1: PYL4H82R V97A (AtPYL H82 and V97A) (receptor)
chain: MLAVHRPSSAVSDGDSVQIPMMIASFQKRFPSLSRDSTAARFHTHEVGPNQCCSAVIQEISAPISTVWSVVRRFDNPQAYKRFLKSCSVIGGDGDNAGSLRQVHVVSGLPAASSTERLDILDDERHVISFSVVGGDHRLSNYRSVTTLHPSPISGTVVVESYVVDVPPGNTKEETCDFVDVIVRCNLQSLAKIAENTAAESKKKMSL
notes: also called PYL4H82R (found combined with V97A)
B2: PYL4A194T: AtPYL4 ABA receptor mutant polypeptide with A194T substitution (SEQ ID NO. 60; nucleic acid SEQ ID NO: 55); also over-expressed in plants (protein, listed as Arabidopsis thaliana)
chain: B1 chain with R82H, A97V, A194T

What was measured:
PP2CA [1] = experiment: Yeast two hybrid (Y2H) growth assay with PP2CA; format: cell-based, Arabidopsis; conditions: absence of ABA; growth on medium lacking His and Ade
Procedure: We conducted error-prone PCR mutagenesis by amplification of the PYL4 open reading frame using the following primers: FPYL4Ncol, 5″-GCAGCAGCCATGGTTGCCG TTCACCGTCCTTCT and RPYL4EcoRIstop: […] TCT TCTTCTT, and the following conditions: 2 mM dGTP, dCTP and dTTP, 0.5 mM dATP, 12 mM MgCl2 and Taq polymerase. The PCR product was Ncol-EcoRI doubly digested, cloned into the pGBKT7 vector and DH10B cells were transformed by electroporation. Thus, we generated an allele library in E. coli of approximately 10,000 PYL4 mutant clones. […] The library was shuttled to yeast AH109 by co-transformation with pGAD7-PP2CA. Yeast transformants were pooled and clones able to grow in the absence of exogenous ABA in medium lacking histidine and adenine were selected. Yeast plasmids were extracted, sequenced and retransformed in yeast cells to recapitulate the phenotype. Protocols for yeast two hybrid assays were similar to those described previously (Saez et al., 2008).

[2] = test system: Arabidopsis thaliana plants; experiment: Drought stress under greenhouse conditions; format: in vivo; conditions: for survival after drought stress: OE lines, watering resumed at 19-d, scored at 23-d
Procedure: (§1) Plants grown under greenhouse conditions (10 individuals per experiment, three independent experiments) were grown under normal watering conditions for 15 days and then subjected to drought stress by stopping irrigation during 20 days. Next, watering was resumed and survival rate was calculated after 3 days by counting the percentage of plants that had more than four green leaves. Photographs were taken at the start of the experiment (day 0), after 16 and 19 days of drought, and 3 days after rewatering. Shoot-growth and water-loss were measured as follows. Quantification of shoot-growth was performed at 2, 5, 7 and 9 d after stopping irrigation (day 0) by measuring the maximum rosette radius of the plants. Water-loss measurements were done in two leaves from each plant that were detached 11 d after the start of the experiment, next weighted, incubated in de-mineralized water for 3 h and weighed again. The difference in weight was considered as water loss and related to the initial fresh weight (μl H2O/g FW).

[3] = test system: Arabidopsis thaliana plants; experiment: Seedling establishment and early seedling growth of OE lines on ABA; format: in vivo; conditions: for ABA-mediated inhibition of seedling establishment: 0.25 or 0.5 μM ABA; for ABA-mediated inhibition of shoot growth (early seedling growth): 0.25-0.5 μM ABA
From the text: PYL4 or PYL4 mutants were cloned into pCR8/GW/TOPO entry vector (Invitrogen) and recombined by LR reaction into the gateway compatible ALLIGATOR2 vector (Bensmihen et al., 2004). This construct drives expression of PYL4 under control of the 35S CaMV promoter and introduces a triple HA epitope at the N-terminus of the protein. Selection of transgenic lines is based on the visualization of GFP in seeds, whose expression is driven by the specific seed promoter At2S3. The ALLIGATOR2-35S:3HA-PYL4 or mutant constructs were transferred to Agrobacterium tumefaciens C58C1 (pGV2260) (Deblaere et al., 1985) by electroporation and used to transform Columbia wild type plants by the floral dip method. T1 transgenic seeds were selected based on GFP visualization and sowed in soil to obtain the T2 generation. At least three independent transgenic lines were generated for each construct. Homozygous T3 progeny was used for further studies and expression of HA-tagged protein in 21-d-old seedlings was verified by immunoblot analysis using anti-HA-peroxidase (Roche).
After surface sterilization of the seeds, stratification was conducted in the dark at 4° C. for 3 d. Approximately 100 seeds of each genotype were sowed on MS plates supplemented with different ABA concentrations per experiment. To score seed germination, radical emergence was analyzed at 72 h after sowing. Seedling establishment was scored as the percentage of seeds that developed green expanded cotyledons and the first pair of true leaves at 7-d.

PP2CA [4] = experiment: BiFC assay with PP2CA in N. benthamiana leaves; format: cell-based; conditions: no exogenous ABA
Procedure: Experiments were performed basically as described by Voinnet et al., (2003). The different binary vectors described above where introduced into Agrobacterium tumefaciens C58C1 (pGV2260) (Deblaere et al., 1985) by electroporation and transformed cells were selected in LB plates supplemented with kanamycin (50 μg/ml). Then, they were grown in liquid LB medium to late exponential phase and cells were harvested by centrifugation and resuspended in 10 mM morpholinoethanesulphonic (MES) acid-KOH pH 5.6 containing 10 mM MgCl2 and […] acetosyringone to an OD600 nm of 1. These cells were mixed with an equal volume of Agrobacterium C58C1 (pCH32 35S:p19) expressing the silencing suppressor p19 of tomato bushy stunt virus (Voinnet et al., 2003) so that the final density of Agrobacterium solution was about 1. Bacteria were incubated for 3 h at room temperature and then injected into young fully expanded leaves of 4-week-old N. benthamiana plants. Leaves were examined after 3-4 days under a Leica TCS-SL confocal microscope and laser scanning confocal imaging system. Quantification of fluorescent protein signal was done as described (Gampala et al., 2007) using the National Institutes of Health (NIH) Image software ImageJ v1.37. […]

[5] = test system: Arabidopsis thaliana plants; experiment: Water-loss assays of OE lines; format: in vivo; conditions: for water loss under drought stress: greenhouse, leaves detached after 11-d without irrigation
Procedure: 2-3 weeks-old seedlings grown in MS plates were used for water-loss assays. Four seedlings per genotype with similar growth, three independent experiments, were submitted to the drying atmosphere of a flow laminar hood. Kinetic analysis of waterloss was performed and represented as the percentage of initial fresh weight loss at each scored time point. Stomatal aperture measurements were done in leaves of 5-week-old plants grown under greenhouse conditions using whole leaf imaging (Chitrakar and Melotto, 2010). Staining of whole leaves with propidium iodide was conducted and the aperture of 30-40 stomata (ratio width/length, two independent experiments) was measured using a Leica TCS-SL confocal microscope.
as §1

Molecule | interaction with PP2CA in Y2H assay (PP2CA [1]) | survival after drought stress [2] | ABA-mediated inhibition of seedling establishment [3] | localization of interaction with PP2CA (PP2CA [4]) | water loss under drought stress [5] | ABA-mediated inhibition of shoot growth (early seedling growth) [3] | plant growth (rosette radius) during drought ([2]; OE plants, subsequent 5-d after irrigation stopped) | water-loss kinetics ([5]; 15-d-old seedlings, drying atmosphere of a laminar flow hood)
PYL4: AtPYL4 wild type ABA receptor polypeptide (SEQ ID NO:3, At2g38310) [reference compound] | ABA-dependent manner | around 30% | enhanced ABA-mediated inhibition of seedling establishment compared to non-transformed plants | localized mostly to the nucleus | reduced water loss compared to non-transformed plants |  |  | 
B1 | ABA-independent interaction with PP2CA |  | higher sensitivity to ABA-mediated inhibition of seedling establishment than PYL4 OE plants |  |  | higher sensitivity to ABA-mediated inhibition of shoot growth than PYL4 OE plants |  | 
B2 | enhanced the interaction of PYL4 and PP2CA in the absence of ABA | 60-70% | higher sensitivity to ABA-mediated inhibition of seedling establishment than PYL4 OE plants | relatively much more abundant in the cytosol compared to PYL4 | reduced water loss compared to non-transformed Col and PYL4 OE plants | higher sensitivity to ABA-mediated inhibition of shoot growth than PYL4 OE plants | plant growth was reduced in non-transformed Col and PYL4 OE plants compared to PYL4A194T OE plants | lost less water than non-transformed or PYL4 OE lines
